In patent publication US20080292760A1, “Semi-Solid Food Products and Methods For Their Production, Based on Inhibiting Amylase Starch Breakdown” (WAGENINGEN CENTRE FOR FOOD SCIENCES, priority 2004, published 2008):

Assay: amylase study: sensory rating of vanilla custard desserts with added amylase
Type: in vivo, human
Protocol: The role of salivary amylase in modifying texture sensations was evaluated in the following examples, in which the level of amylase activity was varied within subjects, rather than between subjects. Alpha-amylase was added in varying concentrations to starch and CMC (non-starch)-based vanilla custard desserts. Additionally, amylase activity was inhibited to various degrees by adding the pharmaceutical amylase inhibitor Acarbose (CAS nr. 56180-94-0) in various concentrations to the same test foods.
Eighteen subjects, 11 females and 7 males aged between 18 and 34 yrs, participated the ‘amylase study’ and 7 different subjects, all females aged between 39 and 56 yrs, participated in the ‘acarbose study’. The subjects participating in the latter study had been informed about acarbose and its possibly side effects if swallowed. To avoid these side effects, subjects expectorated rather than swallowed the acarbose samples. All subjects signed consent forms expressing their willingness to participate in the studies, and all had previously been screened for olfactory and taste disorders and had received extensive training in the description of sensory mouthfeel and afterfeel attributes for semi-solid foods. Testing took place at the sensory facilities of TNO-Nutrition and Food Research in Zeist, The Netherlands.
For the ‘amylase study’, two commercially available full-fat vanilla custard desserts (3 wt % fat AH vanille vla or “AH”, Albert Heijn Corp., Zaandam, The Netherlands; and 3 wt % fat Boerenland via or “BL”, Campina Corp., Woerden, The Netherlands) were used as the two starch-based vanilla custard desserts. For the ‘acarbose study’, Boerenland via was used again but the Albert Heijn via was replaced by a low-fat dairy custard (0.1 wt % fat Creamex, Creamex Corp., Rijkervoort, The Netherlands).
In both studies, the effect of amylase and acarbose on starch-based custards was compared with their effects on non-starch custards to verify amylase-starch interactions. A non-starch custard was produced using full-fat (3 wt %) commercially available milk (Campina Corp., Woerden, The Netherlands) and adding 0.85 wt % of sodium carboxy methylcellulose (or “CMC”) (Akuell AF 3295, Akzo Nobel Corp., Amersfoort, The Netherlands), 6.25 wt % of sugar and 0.33 wt % of vanilla powder. Yellow colorant (Egg yellow, Supercook, Leeds, United Kingdom) was added at 3.33 ml/l custard to match the color of the starch-based custards.
For the amylase study, a bacterial α-amylase (from Bacillus licheniformis, with 15 wt % NaCl and 25 wt % sucrose, Sigma Corp., Zwijndrecht, The Netherlands) was used to prepare amylase solutions at concentrations of 40, 160, and 640 units in 100 μl aliquots of water. This concentration range is similar to the range of individual amylase levels found across a group of young and healthy subjects (Engelen, unpublished results). The amylase concentrations, including a control of 0 units, were added to 5 ml samples of the starch-based custards. Only the highest concentration, 640 units, and the control were added to 5 ml samples of the CMC custard.
Panelists were seated in sensory booths with appropriate ventilation and lighting. Testing took place over either 3 (‘amylase study’) or 1.5 (‘acarbose study’) sessions of 2 hours. Within each session, subjects were presented with 20 trials during which they received in the amylase study each of the three custards once with the various amounts of amylase and with two different processing instructions. Over the 3 sessions, each custard was presented 3 times in each condition. In the ‘acarbose study’, each of the three custards with various amounts of acarbose were presented twice in the first session, and once in the second half session. The stimulus presentation order was randomized per subject and per session. The trials were presented at an average rate of one trial per 5 minutes. A break separated the first and the second half of each session. […]

[1] = R, AH custard, amylase 40 units
[2] = R, AH custard, amylase 160 units
[3] = R, AH custard, amylase 640 units
[4] = R, BL custard, amylase 40 units
[5] = R, BL custard, amylase 160 units
[6] = R, BL custard, amylase 640 units
[7] = R, CMC custard, amylase 640 units
[8] = U, AH custard, amylase 40 units
[9] = U, AH custard, amylase 160 units
[10] = U, AH custard, amylase 640 units
[11] = U, BL custard, amylase 40 units
[12] = U, BL custard, amylase 160 units
[13] = U, BL custard, amylase 640 units
[14] = U, CMC custard, amylase 640 units

decrease of creamy mouthfeel (AH custard, amylase added): up to 25% | airy-mo [1]: 25 | bitter/chem-fl [1]: 30 | creamy-af [1]: 38 | creamy-mo [1]: 44 | fatty-af [1]: 29 | heterogeneous-mo [1]: 26 | prickling-mo [1]: 19 | rough-af [1]: 26 | smooth-mo [1]: 65 | sticky-af [1]: 28 | temperature-mo [1]: 38 | thick-mo [1]: 41 | airy-mo [2]: 25 | bitter/chem-fl [2]: 38 | creamy-af [2]: 35 | creamy-mo [2]: 37 | fatty-af [2]: 31 | heterogeneous-mo [2]: 29 | prickling-mo [2]: 20 | rough-af [2]: 25 | smooth-mo [2]: 62 | sticky-af [2]: 29 | temperature-mo [2]: 35 | thick-mo [2]: 38 | airy-mo [3]: 25 | bitter/chem-fl [3]: 44 | creamy-af [3]: 34 | creamy-mo [3]: 35 | fatty-af [3]: 29 | heterogeneous-mo [3]: 33 | prickling-mo [3]: 25 | rough-af [3]: 23 | smooth-mo [3]: 61 | sticky-af [3]: 29 | temperature-mo [3]: 38 | thick-mo [3]: 41 | airy-mo [4]: 28 | bitter/chem-fl [4]: 22 | creamy-af [4]: 35 | creamy-mo [4]: 43 | fatty-af [4]: 28 | heterogeneous-mo [4]: 24 | prickling-mo [4]: 17 | rough-af [4]: 28 | smooth-mo [4]: 63 | sticky-af [4]: 29 | temperature-mo [4]: 37 | thick-mo [4]: 41 | airy-mo [5]: 29 | bitter/chem-fl [5]: 32 | creamy-af [5]: 35 | creamy-mo [5]: 45 | fatty-af [5]: 30 | heterogeneous-mo [5]: 27 | prickling-mo [5]: 19 | rough-af [5]: 26 | smooth-mo [5]: 63 | sticky-af [5]: 29 | temperature-mo [5]: 37 | thick-mo [5]: 40 | airy-mo [6]: 25 | bitter/chem-fl [6]: 40 | creamy-af [6]: 37 | creamy-mo [6]: 37 | fatty-af [6]: 30 | heterogeneous-mo [6]: 32 | prickling-mo [6]: 23 | rough-af [6]: 26 | smooth-mo [6]: 64 | sticky-af [6]: 29 | temperature-mo [6]: 37 | thick-mo [6]: 38 | airy-mo [7]: 36 | bitter/chem-fl [7]: 45 | creamy-af [7]: 39 | creamy-mo [7]: 39 | fatty-af [7]: 36 | heterogeneous-mo [7]: 34 | prickling-mo [7]: 25 | rough-af [7]: 21 | smooth-mo [7]: 47 | sticky-af [7]: 37 | temperature-mo [7]: 44 | thick-mo [7]: 49 | vanilla-fl [7]: 30 | airy-mo [8]: 25 | bitter/chem-fl [8]: 35 | creamy-af [8]: 36 | creamy-mo [8]: 44 | fatty-af [8]: 29 | heterogeneous-mo [8]: 28 | prickling-mo [8]: 19 | rough-af [8]: 30 | smooth-mo [8]: 62 | sticky-af [8]: 31 | temperature-mo [8]: 41 | thick-mo [8]: 39 | airy-mo [9]: 27 | bitter/chem-fl [9]: 37 | creamy-af [9]: 37 | creamy-mo [9]: 39 | fatty-af [9]: 28 | heterogeneous-mo [9]: 27 | prickling-mo [9]: 19 | rough-af [9]: 27 | smooth-mo [9]: 65 | sticky-af [9]: 28 | temperature-mo [9]: 39 | thick-mo [9]: 38 | airy-mo [10]: 26 | bitter/chem-fl [10]: 47 | creamy-af [10]: 34 | creamy-mo [10]: 36 | fatty-af [10]: 28 | heterogeneous-mo [10]: 28 | prickling-mo [10]: 22 | rough-af [10]: 27 | smooth-mo [10]: 66 | sticky-af [10]: 31 | temperature-mo [10]: 40 | thick-mo [10]: 32 | airy-mo [11]: 27 | bitter/chem-fl [11]: 27 | creamy-af [11]: 37 | creamy-mo [11]: 42 | fatty-af [11]: 28 | heterogeneous-mo [11]: 27 | prickling-mo [11]: 17 | rough-af [11]: 30 | smooth-mo [11]: 65 | sticky-af [11]: 31 | temperature-mo [11]: 42 | thick-mo [11]: 37 | airy-mo [12]: 26 | bitter/chem-fl [12]: 32 | creamy-af [12]: 38 | creamy-mo [12]: 43 | fatty-af [12]: 29 | heterogeneous-mo [12]: 27 | prickling-mo [12]: 17 | rough-af [12]: 31 | smooth-mo [12]: 62 | sticky-af [12]: 32 | temperature-mo [12]: 42 | thick-mo [12]: 41 | airy-mo [13]: 27 | bitter/chem-fl [13]: 38 | creamy-af [13]: 35 | creamy-mo [13]: 39 | fatty-af [13]: 29 | heterogeneous-mo [13]: 33 | prickling-mo [13]: 20 | rough-af [13]: 31 | smooth-mo [13]: 66 | sticky-af [13]: 34 | temperature-mo [13]: 41 | thick-mo [13]: 37 | airy-mo [14]: 46 | bitter/chem-fl [14]: 52 | creamy-af [14]: 39 | creamy-mo [14]: 40 | fatty-af [14]: 41 | heterogeneous-mo [14]: 38 | prickling-mo [14]: 24 | rough-af [14]: 21 | smooth-mo [14]: 49 | sticky-af [14]: 44 | temperature-mo [14]: 48 | thick-mo [14]: 53 | vanilla-fl [14]: 29 | intensity of bitter/chemical flavor, change when amylase added (non-starch CMC-based custard, p=0.01): increased | bitter/chemical flavor, change with increasing amylase concentration (starch-based custards): increased significantly | creamy mouthfeel, change with increasing amylase concentration (starch-based custards, p<0.0001): decreased | vanilla flavor, change with increasing amylase concentration (starch-based custards, p=0.001): decreased | thick mouthfeel, change with increasing amylase concentration (starch-based custards, p=0.004): decreased | heterogeneous mouthfeel, change with increasing amylase concentration (starch-based custards, p=0.006): increased significantly | fatty afterfeel, change with increasing amylase concentration (starch-based custards, p=0.05): decreased
B1: Amylase: bacterial α-amylase from Bacillus licheniformis, with 15 wt % NaCl and 25 wt % sucrose, Sigma Corp. (protein, UniProt P06278 30-512, looked up)
Alpha-amylase: ANLNGTLMQYFEWYMPNDGQHWKRLQNDSAYLAEHGITAVWIPPAYKGTSQADVGYGAYDLYDLGEFHQKGTVRTKYGTKGELQSAIKSLHSRDINVYGDVVINHKGGADATEDVTAVEVDPADRNRVISGEHRIKAWTHFHFPGRGSTYSDFKWHWYHFDGTDWDESRKLNRIYKFQGKAWDWEVSNENGNYDYLMYADIDYDHPDVAAEIKRWGTWYANELQLDGFRLDAVKHIKFSFLRDWVNHVREKTGKEMFTVAEYWQNDLGALENYLNKTNFNHSVFDVPLHYQFHAASTQGGGYDMRKLLNSTVVSKHPLKAVTFVDNHDTQPGQSLESTVQTWFKPLAYAFILTRESGYPQVFYGDMYGTKGDSQREIPALKHKIEPILKARKQYAYGAQHDYFDHHDIVGWTREGDSSVANSGLAALITDGPGGAKRMYVGRQNAGETWHDITGNRSEPVVINSEGWGEFHVNGGSVSIYVQR
modifications: formulated with NaCl and sucrose
melting-mo [7]: 35 | melting-mo [14]: 32 | effect on odor, mouthfeel or afterfeel attributes (non-starch CMC-based custard, added amylase): failed to affect any of the odor, mouthfeel or afterfeel attributes | melting mouthfeel, change with increasing amylase concentration (starch-based custards, p=0.001): increased significantly
